Reference: the nanobody polyreactivity screen of Harvey et al. (2022)

Assay: yeast display, Sf9 membrane polyspecificity reagent, FACS + sequencing; frameworks hold sequencing errors
Outline: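 Nanobodies from a synthetic yeast display library (Saccharomyces cerevisiae BJ5465), induced 36–48 hours with galactose, were stained 1 hour at 4 °C with 10% biotinylated, detergent-solubilized Sf9 membrane reagent, enriched on streptavidin microbeads, then FACS-sorted. Anti-HA (expression) and streptavidin (reagent binding) fluorescence set low and high (top ~1%) gates. Polyreactivity labels come from the gate of origin. Genes were colony-PCR amplified, MiSeq 2 × 250 sequenced and filtered by CDR length.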

| Sequence | polyreactivity (PSR sort gate) |
| --- | --- |
| QVQLVESGGGLVQAGGSLRLSCAASGSTFVSYAMGWYRQAPGKERELVAAISTSGGTTYYADSVKGRFTISRDNAKNTVYLQMNSLKPEDTAVYYCAAYDFKYKGYDYWGQGTQVTVSS | high polyreactivity |
| QVQLVESGGGLVQAGGSLRLSCAASGSTFSHNAMGWYRQAPGKERELVAAIRWNGGSTHYADSVKVRFTISRDNAKNTVYLQMNSLKPEDTAVYYCAKENHYFTQGYGYWGQGTQVTVSS | low polyreactivity |
| QVQLVESGGGLVQAGGSLRLSCAASGIIFSVYAMGWYRQAPGKERELVAAISWSGTSTYYADSVKGRFTISRDNAKNTVYLQMNSLKPEDTAVYYCNAKRYRYFGNEYWGQGTQVTVSS | high polyreactivity |
| QVQLVESGGALVQAGGSLRLNCAASGRTFGYNAMGWYRQAPGKERELVAAITIGGSTNYADSVKWRFTISRDNAKNNGYLQMNSLLPEDTAVYYCAAYDTLLYWVEFYYWGQGTQVTVSS | low polyreactivity |
| QVQLVESGGGLVQAGGSLRLSCAASGSIFYVYAMGGYRQAPGKERELVAAITSGSSTNYADSVKGRFTISRDNAKNTVYLQMNSLKPEDTAVYYCAASFRDDFPQRLDYWGQGTQVTVSS | low polyreactivity |
| QVQLVESGGGLVQAGGSLRLICAASGSTFNVYAMGWYIPAPGKERELVASIRTSGTRTYYADSVKGRFTISRDNAKNNVYLQMNSLKPEDTAVYYCNARYYSNLRRHGGYWGQGTQVTVSS | high polyreactivity |
| QVQLVESGGGLVQAGGSLRLSCAASGRIFTPYAMGWYRQAPGKERELVAGISSSGGSTYYADSVKGRFTISRDNAKNTVYLQMNSLKPEDTAVYFCNKRYRGTPRSYDYWGQGTQVTVSS | high polyreactivity |
| QVQLVESGGGLVQAGGSLRLICAASGRTFRYNAMGWYRQAPGKERELVAAITLGASRTYYADSVKGRFTISRDNAKNTVYLQMNSLKPEDTAVYYCNAVGRRNVDSSLNDYWGQGTQVTVSS | low polyreactivity |
| QVQLVESGGGLVPAGGSLRLSCAASGFTFSGYAMGWYRQAPGKERELVAAITRRGGSTYYADSVKGRFTISRDNAKNTVYLQMNSLKPEDTAVYYCAADSGYPWELDYWGQGTQVTVSS | low polyreactivity |
| QVQLVESGGGLVQAGGSLRLSCAASGIIFWYYAMGWYRQAPGKERELVAAISGSGGRTYYADSVKGRFTISRDNAKNTVYLQMNSLKPEDTAVYYCNALRAAFYHRARELDYWGQGTQVTVSS | high polyreactivity |
| QVQLVESGGGLVQAGGSLRLSCAASGLTFDWYAMGWYRQAPGKERELVAAISWNGVSTDYADSVKGRFTISRDNAKYTVYLQMNRLKPEDTAVYYCAADPPWYLYVGFDYWGQGTQVNVSS | high polyreactivity |
| QVQLVESGGGLVQAGGSLRLSCAASGGIFRYYAMGWYRQAPGKERELVATITSGSITNYADSVKGRFTISRDNAKNTVYLQMNSLKPEDTAVYYCAALGAFPSLEFDYWGQGTQVTVSS | low polyreactivity |
| QVQLVESGGGLDQAGGSLRLSCAASGSIFRGYAMGWYRQAPGKERDLVAAINRSGGRTYYADSVKGRFTISRDNAKNTVYLQMNRLKPEDTAVYYCAADYFFYQPSGYDYWGQGTQVTVSS | high polyreactivity |
| QVQLVESGGGLVQAGGSLRLSCAASGRTFAYYAMGWYRQAPGTERELVAAISYSGARTYYADSVKGRFTISRDNAKNTVYLQMNSLKPEDTAVYYCAKSRGYPYTDYNYWGQGTQVTVSS | high polyreactivity |
| QVQLVDSGGGLVQAGGSLRLSCAASGRTVRYYTMGWYRQAPGKERELVAAISNAASTNYADSVKGRFTISRDNAKNTVYLQMNSLKPEDTAVYYCNAYLHYRAGHPRGYHNRYYYWGQGTQVTVSS | high polyreactivity |
| QGQLVESGGGLVQAGGSRRLSCAASGRIFFYYAMGGYRQGPGQARELVAAISQSGASTYYADSVKGRFTISRDTAKNTVYLQMNSLKPEDTAVYYCNHKPYWYRDYYYWGQGTQVTVSS | high polyreactivity |
| QVQLQEIGGCLVQAGDSHRLSCAASGNIFPFTDMGWNRQAQGKERELVAAINAGSTTYYADSVKGRFTISRDNAKITVYLQLISLKPEDTAVYYCAVYYLGSGTFCYWGQGPQVTVSS | high polyreactivity |
| QVQLVDSGGGLVQAGGSLRLSCAASGSIFPKNAMGWYRPAPGKERELVAAISSGGGGTYYADSVKGRFTISRDNAKNTVYLQMNSLKPEDTAVFYCNKRDGNGGNTKYDYWGQGTQVTVSS | low polyreactivity |
| QVQLEESGGGLVQAGGSLRLSCAASGRSFRKYAMGWYRQAPGKERELVARISWSAGSTYYADSVKGRFKISRDIAMYTVYLQMNSLKPVDTAFYFCIDDGYYRYGNRVLRPGYYCGQGTQVTVSS | high polyreactivity |
| QVQLVESGGGLVQAGGSLRLSFAASGSTFSEYALGLYRQAPGKERELVAAITSSSGSTYYADSVKGRFTISRVNAKNTVYLQMNSLKPEDTAVYYCNAYYRTVYYDWGDYEYWGEGTQVTVSS | high polyreactivity |
| QVQLVESGGGLVQAGGSLRISCAASGRIFHGNARGWYRPAPGKERELVAAITSGGRTFYADSVKGRFTISRDNAKNTVYLQLHSLKPEDTAVYYCNAPSIAGYAEYNSHDYWGHGTQVTVSS | high polyreactivity |
| QVQLVESGGGLVQAGGSLRLSCAASGFTFLYYAMGWYRQAPGKEREVVAAISSGGSTYYADSVKGRFTISRDNAKNTVYLQMNSLKPEDTAVYYCNVRYTRNRWQYDYWGQGSQVTVSS | high polyreactivity |

| Sequence | polyreactivity (PSR sort gate) |
| --- | --- |
| QVQLVESGGGLVQAGGSLRLSCAASGSTFRSYAMGWYRPAPGTERELVAAISYSGDSTYYADSVTGRFTISRDIAKNTVFLQMKRLKPVDTAVYYCAALRDWDIQGEPWKRYGYWGQGTQVTVSS | low polyreactivity |
| QVQLVESGGGLVQAGGSLRLSCAASGSIYGSYVMGWYRQAPGKERELVAAINWSGGRTYYADSVKGRFTISRDNAKYTVFLQMNSLKPEDTAVYYCAARATNVYSKMDYWGQGTQVSVSS | high polyreactivity |
| QVQLVESGGGLVQAGGSLRLSCAASGLIQPYYTMGWYRQAPGKERELVAAIRRTTGSTFYADSVKGRFTISRDNAKNTVYLQMNSLKPEETAVYYCNVRRTPYSHWTGGGMDYWGQGTQVTVSS | high polyreactivity |
| QVQLVESGGGLVQAGGSLRLSCAASGSTFRTYAMVWYRQAPGKERELVAAIRSRGGSTYYADSVKGRFTISRDNAKNTVYLQMNSLKPEDTAVYYCNAVPRWSYVDEDSWGQGTQVTVSS | high polyreactivity |
| QVQLVESGGGLVQAGGRLRLICSASGRIIKDNAMGWYRQAPGKERELVADISSSGGSTYYADSVKGRFTISRDNAKNTVYLQMNSLKPEDTAVYYFAKYRYPSRLYSFPLGYDYWGQGTQVTLSS | high polyreactivity |
| QVQLVESGGGLVQAGGSLRLSCAASGNTIIRYAMGWYRQAPGKERELVAAISYSGGRTYYADSVKGRFTISRDNAKNTVYLQMNSLKPEDTAVYYCNAASRYGGDYWGQGTQVTVSS | low polyreactivity |
| QVQLVESGGGLVQAGGSLRLSCAASGRTFDYNAMGWYRQAPGKEREMVAAISSSGGSTYYADSVKGRFTISRDNAKNTVYLQMNSLKPEDTAVYYCATLYPRISIYYYWGQGTQVTVSS | high polyreactivity |
| QVQLVESGGGLVQAGGSLRLSCAASVFTFTKYAMGWYRQAPGKERELVAAITRRGGRTYYADSVKGRFTISRDNAKNTVYLQMNSLKPEDTAVYYFNADIIWGSVSNGSEYDYWGQGTQVTVSS | high polyreactivity |
| QVQLVESGGGLVQAGGSLRLRCAASGSIFNFYAMGGYRQAPGKERELVATINWSGGRTYYADSVKGRFTISRDNATNTVYLQMNSLNTEDTAVYYCAASRYFRGDYWGQGTQGTVSS | high polyreactivity |
| QGQLVESGGGLVQAGGSLRLSCAASGYIFLTNAMGWSREAPGKERVLVAAISWRGGRTYYADSVKGRFTISRDNAKNTVYLQMNSLKPEDTAVYYCNAVCEYYGKSDYWGQGTQVTVSS | low polyreactivity |
| QVQLVESGGGLVQAGGSLRLSCAASGIIFYLNAMGWYRLAPGKERELVAAISSSDGTTYYADSVKGRFTISRDNAKNTVYLQMNSLKPEDTAGYYCAAGQDWGYLDYDWVSYLYDYWGQGTQVTVSS | low polyreactivity |
| QVQLVESGGGLVQAGGSLRLSCAASGFTFYYNAMGWYRQAPGKERELVAIRFRGGNTYYADSVKGRFTISRDNAKNTVYLQMNSLKPEDTAVYYCNADDRGSTYVDFDYWGQGTQVTVSS | low polyreactivity |
| QVQLVESGGGLVQAGGSLRLSCAASGLIFFWYTMGWYRKAPGKERELVAAIDSGGSTYYADSVKGRFTISRDNAKNTVYLQMNSLKPEDTAVYYCNADPGWGIYDDYWVQGTQVTVSS | high polyreactivity |
| QVQLVESGGGLVQAGGSLRLSCAASGSIFSAYVMGWYRQAPGKERELVAAINRGGNTYYADSVKGRFTISRDNAKNTVYLQMNSLKPEDTAVYYCNAQWYYLRYRYDYWGQGTQVTVSS | high polyreactivity |
| QVQLVESGGGLVQAGGSLRLSCAASGSIFAYAMGWDRQAPGKERELFAAISGGSTYYADSVKGRFTISRDNAKNTVYLQMNSLNPEDTAVYSCAADLDDERYYWGQGTQVTVSS | low polyreactivity |
| QVQLVESGGGLVQAGGSLRISSAASGIIFPWYYMGWYRQAPGKESELVAGITDGGDTTYADSVKWRFTISRDYAMNNVYLEMNRLKPEDTAVYYCAADIGYGYWHFDYLGQGTQVTVSS | low polyreactivity |
| QVQLVESGGGLVQAGGSLRLSCAASGLIFRGYTMGWYRQAPGKEREFVAAITRRGTSTYYADSVKGRFTISRDNAKNTVYLQMNSLKPEDTAVYYCAARSVSGPRGYPYDYWGQGTQVTVSS | high polyreactivity |
| QVQLVESGGGLVQAGGSLRLSCAASGNTFGAYTMGWYRQAPGKEREFVAAISYSGGITFYADSVKGRFTISRDNAKNTVYLQMNSLKPEDTAVYYCAARTYRYGYWYDYWGQGTQVTVSS | high polyreactivity |
| QVQLQESGGGLVLAGGSLRLSCAASGSISAQAYMGWDRQAPGKEREHVAGINYGDNTNYADSVKGRFTISRDNEHSVSADEQPETGRYRGVLLRGFLELFYYYIYWGQGTQVTVSS | high polyreactivity |
| QVQLVESGGGLVQAGGSLRLSCAASGRTFVGYAMGGYRQAPGQERELVANMTTSGGNTYYADSVKGRFTISRDNAKNTDYLQMNSLKPEDTAVYYCAARVYWVTRAVSTSYYYWGQGTQGTVSS | high polyreactivity |
| QVQLQESGVGLVQAGGSLRLSCAASGSISAVGAMGCYRQAPGQEREFAASVNWGTNTNYADSVKGRFTISRDNAKNTLYLQMNSLKPEDTAVYYCAVLPDWETRHDYWGHGTQVTVSS | low polyreactivity |
